For data set [1], the target named is T1, 14-3-3σ∆C mutant Clu3 (core of the chimeras) (human, UniProt P31947 1-231, 75EEK77 → 75AAA77).
T1 construct: three extra residues left at the N terminus after 3C cleavage of the hexahistidine tag; 14-3-3σ, human, C-terminally truncated (14-3-3σ∆C, residues 1-231), surface-entropy reduction mutant Clu3; Stood in the structures joined on one chain with the peptides (m1-m3); written as a molecule of its own for the pairs core/peptide; also called 14-3-3σ Clu3; 14-3-3σ∆C-Clu3; source: E. coli, as the …
T1 sequence: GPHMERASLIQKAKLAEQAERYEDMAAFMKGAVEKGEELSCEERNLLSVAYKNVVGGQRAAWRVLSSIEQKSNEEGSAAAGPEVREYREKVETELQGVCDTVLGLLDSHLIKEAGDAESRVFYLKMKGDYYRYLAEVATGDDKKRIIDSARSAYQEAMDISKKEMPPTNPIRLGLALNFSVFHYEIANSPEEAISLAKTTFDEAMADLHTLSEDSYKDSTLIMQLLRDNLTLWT
Put plainly: crystal structure; pCH2 (mono-directional peptide swap), 0.1 M bis-Tris pH 6.5, 2 M (NH4)2SO4, 20 °C, 3.2 Å, PDB 5OM0. The note with it: both partners purified.

Data set [2] has as its target T1, 14-3-3σ∆C mutant Clu3 (core of the …). Put plainly: crystal structure; pCH3 (bi-directional peptide swap), 0.1 M bis-Tris-propane pH 6.5, 0.2 M (NH4)2SO4, 25% PEG 3350, 20 °C, 3.9 Å, PDB 5OMA. The following applies: both partners purified.
Data set [3] concerns the molecule itself. Put plainly: crystal structure; pCH2 (mono-directional peptide swap), 0.1 M bis-Tris pH 6.5, 2 M (NH4)2SO4, 20 °C, 3.2 Å, PDB 5OM0.
Data set [4] concerns the molecule itself. The data set is described as follows: crystal structure; pCH3 (bi-directional peptide swap), 0.1 M bis-Tris-propane pH 6.5, 0.2 M (NH4)2SO4, 25% PEG 3350, 20 °C, 3.9 Å, PDB 5OMA.
Data set [5] concerns the molecule itself. Put plainly: SEC; analytical SEC, calibrated Superdex 200 Increase 10/300, 20 mM Tris-HCl pH 7.6, 150 mM NaCl, 0.1 mM EDTA, 3 mM β-mercaptoethanol, 1.2 mL/min; samples pre-incubated 30 min at room temperature; hydrodynamic radii from column calibration. (In general: In gel filtration, larger molecules generally elute earlier.)

Residue numbers refer to the chain shown, from its start. Several values for one entry are separate records, joined by “and”; a condition that tells them apart may be missing. Identical values can stand only once. Where no end group is shown, it is not given here. [ ]: non-standard residue; d: D form. pS = N[C@@H](COP(=O)(O)O)C(=O)O

B1: Gli phosphopeptide (RRApS640DPAQA), as fused in pCH2 (peptide)
peptide: RRA[pS]DPAQA
notes: Gli peptide RRAS640DPAQA, said to be conserved in Gli1, Gli2 and Gli3; Tethered through GSGSL to Thr231 of 14-3-3σ Clu3; also called Gli1 phosphopeptide; Gli-derived phosphopeptide; source: E. coli, as the C-terminal part of chimera pCH2, phosphorylated by co-expressed PKA
Consider B1, for which, in data set [1], the binding result is “binds”.

B2: phosphorylated linker GSGpSLRR of pCH3 (peptide)
peptide: GSG[pS]LRR
notes: GSGS linker, the Leu kept from CH1 and the first two Arg of the StARD1 peptide; the stretch that was traced in the groove; also called cross-patching peptide of pCH3; source: E. coli, as part of the C-terminal tail of chimera pCH3, phosphorylated by co-expressed PKA
On to B2, for which the binding result in data set [2] is reported as “binds”.

B3: 14-3-3σ Clu3 – Gli1 phosphopeptide chimera, phosphorylated (pCH2) (other)
chain: GPHMERASLIQKAKLAEQAERYEDMAAFMKGAVEKGEELSCEERNLLSVAYKNVVGGQRAAWRVLSSIEQKSNEEGSAAAGPEVREYREKVETELQGVCDTVLGLLDSHLIKEAGDAESRVFYLKMKGDYYRYLAEVATGDDKKRIIDSARSAYQEAMDISKKEMPPTNPIRLGLALNFSVFHYEIANSPEEAISLAKTTFDEAMADLHTLSEDSYKDSTLIMQLLRDNLTLWTGSGSLRRASDPAQA
modifications: phosphoserine at Ser640 of the Gli peptide
notes: three extra residues left at the N terminus after 3C cleavage of the hexahistidine tag; 14-3-3σ, human, C-terminally truncated (14-3-3σ∆C, residues 1-231), surface-entropy reduction mutant Clu3; Gli peptide RRAS640DPAQA, said to be conserved in Gli1, Gli2 and Gli3; the other grooves hold sulfate; also called 14-3-3σ fusion with Gli phosphopeptide; source: E. coli, co-expressed with His-tagged …
Regarding B3, the binding result in data set [3] is reported as “binds”.

B4: 14-3-3σ Clu3 – StARD1 phosphopeptide chimera, phosphorylated (pCH3) (other)
chain: B3 chain with A242S, D244L, P245L, A246G, Q247S, A248R
modifications: phosphoserine at the second Ser of the GSGS linker (-GSGpS-); phosphorylation status of the target and neighbouring serines (RRSSLLGSR) not known
notes: three extra residues left at the N terminus after 3C cleavage of the hexahistidine tag; 14-3-3σ, human, C-terminally truncated (14-3-3σ∆C, residues 1-231), surface-entropy reduction mutant Clu3; StARD1 peptide around Ser57 (RRSS57LLGS); also called 14-3-3σ fusion with StARD1/BimEL phosphopeptide; source: E. coli, co-expressed with His-tagged catalytic subunit of mouse PKA, purified (subtractive …)
For B4, in data set [4], the binding result is recorded as “binds”.

B5: 14-3-3σ Clu3 – HSPB6 phosphopeptide chimera, phosphorylated (pCH1) (other)
chain: GPHMERASLIQKAKLAEQAERYEDMAAFMKGAVEKGEELSCEERNLLSVAYKNVVGGQRAAWRVLSSIEQKSNEEGSAAAGPEVREYREKVETELQGVCDTVLGLLDSHLIKEAGDAESRVFYLKMKGDYYRYLAEVATGDDKKRIIDSARSAYQEAMDISKKEMPPTNPIRLGLALNFSVFHYEIANSPEEAISLAKTTFDEAMADLHTLSEDSYKDSTLIMQLLRDNLTLWTGSGSLRRASAPL
modifications: phosphoserine at Ser16 of the HSPB6 peptide (RRApS16APL)
notes: three extra residues left at the N terminus after 3C cleavage of the hexahistidine tag; 14-3-3σ, human, C-terminally truncated (14-3-3σ∆C, residues 1-231), surface-entropy reduction mutant Clu3; flexible linker; HSPB6 peptide RRAS16APL with the natural Leu that precedes it (the Leu is told in words; Dimer through the 14-3-3σ core; also called CH1 co-expressed with PKA; 14-3-3/HSPB6 chimera CH1; …)
On to B5, for which the “stoichiometry N” value in data set [5] was 2 and 4.

What is called stoichiometry N is a count of units in the complex or per binding partner.
